Reference: paper PMC12168268, “Targeted inhibition of Ninjurin2 promotes chemosensitivity in chemoresistant gastric cancer by suppressing cancer-initiating cells” (Biomarker Research, 2025)

Biological target: T1, recombinant human Periostin (human, UniProt Q15063 22-836)
T1 construct: Periostin, human, recombinant; source: bought: Sino Biological
T1 sequence (looked up): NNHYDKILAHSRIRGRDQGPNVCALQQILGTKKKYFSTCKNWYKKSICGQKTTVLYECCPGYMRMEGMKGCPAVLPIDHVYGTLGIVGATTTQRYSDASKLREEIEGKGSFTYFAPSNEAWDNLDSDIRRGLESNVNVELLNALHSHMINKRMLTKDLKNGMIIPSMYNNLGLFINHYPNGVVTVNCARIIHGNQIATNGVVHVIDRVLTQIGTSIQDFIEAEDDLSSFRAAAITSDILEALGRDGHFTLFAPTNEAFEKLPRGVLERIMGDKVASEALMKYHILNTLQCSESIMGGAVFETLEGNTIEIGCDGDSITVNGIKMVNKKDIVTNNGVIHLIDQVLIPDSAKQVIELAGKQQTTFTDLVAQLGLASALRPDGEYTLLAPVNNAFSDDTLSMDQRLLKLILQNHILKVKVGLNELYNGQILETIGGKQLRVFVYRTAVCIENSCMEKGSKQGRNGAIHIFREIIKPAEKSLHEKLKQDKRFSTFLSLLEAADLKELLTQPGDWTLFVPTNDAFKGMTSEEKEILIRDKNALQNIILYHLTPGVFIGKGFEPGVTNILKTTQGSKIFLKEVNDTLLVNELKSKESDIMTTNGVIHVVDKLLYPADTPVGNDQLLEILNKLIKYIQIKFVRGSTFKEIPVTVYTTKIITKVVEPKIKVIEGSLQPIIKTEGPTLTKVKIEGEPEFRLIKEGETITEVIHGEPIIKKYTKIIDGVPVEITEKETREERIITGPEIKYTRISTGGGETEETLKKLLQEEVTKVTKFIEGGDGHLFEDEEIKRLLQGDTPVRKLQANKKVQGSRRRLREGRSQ
Assay: SPR; Biacore 3000; NINJ2 extracellular domain immobilised by amine coupling on a carboxymethyldextran chip (CMD200M); periostin injected at 231, 116, 58, 29 and 14 nM, 30 µL/min, 2 min association, 5 min dissociation; HBS-T (10 mM HEPES, 150 mM NaCl, 0.005% Tween20) pH 7.4
Conditions: both partners purified

Kd: 16.9 nM
B1: extracellular domain (Met1-Thr65) of recombinant human NINJ2 (domain or fragment, UniProt Q9NZG7 1-65, looked up)
chain: MESARENIDLQPGSSDPRSQPINLNHYATKKSVAESMLDVALFMSNAMRLKAVLEQGPSSHYYTT
notes: Ninjurin-2 (NINJ2), human, extracellular domain, residues Met1-Thr65; also called NINJ2 extracellular domain; source: bought: R&D Systems
